According to patent US12281340B2, “Method of producing N-acyl-amino group-containing compound” (AJINOMOTO CO., INC., priority 2018, dated 2025):

Tests used:
Type in all cases: biochemical
Parameters in all cases: key: +: Detected; −: Not detected
[1] = Synthesis of N-caprinoylamino acid using purified acylamino acid synthetase, UPLC-MS detection; conditions: +ATP
Experimental: 2.0 mL of a reaction solution containing 50 mM Tris-HCl, 5 mM amino acid, 5 mM sodium caprate, 10 mM ATP, 10 mM MgCl2, 1 mM DTT, 50 μg of the purified enzyme, pH 8.0 was incubated at 25° C. for 24 hours. After completion of the reaction, 0.8 mL of a reaction stop solution (1% (v/v) phosphoric acid, 75% (v/v) methanol) was added, and the mixture was filtrated through a filter followed by being subjected to the UPLC-MS analysis to detect a signal of a molecular weight corresponding to an N-caprinoyl amino acid.
A UPLC-MS analysis condition is as follows.
(§1) Apparatus: ACQUITY UPLC (Waters)
• Column: ACQUITY UPLC BEH C18 1.7 2.1×100 mm Column (Waters) • Mobile phase A: 0.1% formic acid • Mobile phase B: acetonitrile Gradient
• Flow rate: 0.6 mL/min • Injection amount: 2 μL • Column temperature: 40° C. • Ionization method: ESI-negative
As a result of the UPLC-MS analysis, the signal of the molecular weight corresponding to the N-caprinoyl amino acid was confirmed in the reaction solution combining the enzyme and the amino acid shown in Table 3 below.

[2] = Synthesis of N-caprinoyl-amino acid derivative, N-caprinoyl-D-amino acid and N-caprinoyl-peptide using purified acylamino acid synthetase, UPLC-MS detection; conditions: +ATP
Experimental: 0.2 mL of a reaction solution containing 50 mM Tris-HCl, 5 mM amino acid derivative or D-amino acid or peptide, 5 mM sodium caprate, 10 mM ATP, 10 mM MgCl2, 1 mM DTT, 50 μg/mL of the purified enzyme, pH 8.0 was incubated at 25° C. for 24 hours. After completion of the reaction, 0.8 mL of the reaction stop solution (1% (v/v) phosphoric acid, 75% (v/v) methanol) was added, and the mixture was filtrated through the filter followed by being subjected to the UPLC-MS analysis to detect a signal of a molecular weight corresponding to an N-caprinoyl-amino acid derivative, an N-caprinoyl-amino acid or an N-caprinoyl-peptide. A condition for the UPLC-MS analysis is as described in Example 2.
As a result of the UPLC-MS analysis, the signal of the molecular weight corresponding to the N-caprinoyl-amino acid derivative, or N-caprinoyl-amino acid, or N-caprinoyl-peptide was confirmed in the reaction solution containing the enzyme in combination with the amino acid derivative or the D-amino acid or the peptide shown in Table 4 below.

[3] = Synthesis of N-acylamino acids from various fatty acids using purified acylamino acid synthetase, UPLC-MS detection
Experimental: 0.1 mL of a reaction solution containing 50 mM Tris-HCl, 5 mM amino acid, 5 mM sodium fatty acid (3 mM of sodium palmitate or sodium stearate), 10 mM ATP, 10 mM MgCl2, 1 mM DTT, 200 μg/mL of the purified enzyme, pH 8.0 was shaken at 25° C. for 24 hours. When sodium palmitate or sodium stearate was used, methanol at a final concentration of 10% (v/v) was contained in the reaction solution. As the amino acid, L-Asp was used in AtGH3-6, OsGH3-8, AtGH3-5, AtGH3-12, L-Ile was used in AtJAR1, L-Ala was used in AtGH3-10, SsGH3, L-Glu was used in AtGH3-17, Gly was used in CfHP, L-Lys was used in PsIAAL, and L-Cys was used in PaHP. After completion of the reaction, 0.4 mL of the reaction stop solution (1% (v/v) phosphoric acid, 75% (v/v) methanol) was added, and the mixture was filtrated through the filter followed by being subjected to the UPLC-MS analysis to detect a signal of a molecular weight corresponding to the N-acylamino acid.
The condition for the UPLC-MS analysis is as follows.
as §1
Column: ACQUITY UPLC BEH C18 1.7 μm 2.1×100 mm Column (Waters), mobile phase A: 0.1% formic acid; mobile phase B: acetonitrile
• Flow rate: 0.6 mL/minute • Injection amount: 2 μL • Column temperature: 40° C. • Ionization method: ESI-negative
As a result of the UPLC-MS analysis, the signal of the molecular weight corresponding to the appropriate N-acylamino acid was confirmed in the reaction solution containing the enzyme in combination with sodium fatty acid shown in Table 7 below.

- signal of molecular weight corresponding to N-caprinoyl amino acid ([1]; substrates GABA and sodium caprate): +
- signal of molecular weight corresponding to N-caprinoyl amino acid ([1]; substrates Gly and sodium caprate): +
- signal of molecular weight corresponding to N-caprinoyl amino acid ([1]; substrates L-Ala and sodium caprate): +
- signal of molecular weight corresponding to N-caprinoyl amino acid ([1]; substrates L-Arg and sodium caprate): +
- signal of molecular weight corresponding to N-caprinoyl amino acid ([1]; substrates L-Asn and sodium caprate): +
- signal of molecular weight corresponding to N-caprinoyl amino acid ([1]; substrates L-Asp and sodium caprate): +
- signal of molecular weight corresponding to N-caprinoyl amino acid ([1]; substrates L-Cys and sodium caprate): −
- signal of molecular weight corresponding to N-caprinoyl amino acid ([1]; substrates L-Gln and sodium caprate): +
- signal of molecular weight corresponding to N-caprinoyl amino acid ([1]; substrates L-Glu and sodium caprate): −
- signal of molecular weight corresponding to N-caprinoyl amino acid ([1]; substrates L-His and sodium caprate): +
- signal of molecular weight corresponding to N-caprinoyl amino acid ([1]; substrates L-Ile and sodium caprate): +
- signal of molecular weight corresponding to N-caprinoyl amino acid ([1]; substrates L-Leu and sodium caprate): +
- signal of molecular weight corresponding to N-caprinoyl amino acid ([1]; substrates L-Lys and sodium caprate): +
- signal of molecular weight corresponding to N-caprinoyl amino acid ([1]; substrates L-Met and sodium caprate): +
- signal of molecular weight corresponding to N-caprinoyl amino acid ([1]; substrates L-Phe and sodium caprate): +
- signal of molecular weight corresponding to N-caprinoyl amino acid ([1]; substrates L-Pro and sodium caprate): +
- signal of molecular weight corresponding to N-caprinoyl amino acid ([1]; substrates L-Ser and sodium caprate): +
- signal of molecular weight corresponding to N-caprinoyl amino acid ([1]; substrates L-Thr and sodium caprate): +
- signal of molecular weight corresponding to N-caprinoyl amino acid ([1]; substrates L-Trp and sodium caprate): +
- signal of molecular weight corresponding to N-caprinoyl amino acid ([1]; substrates L-Tyr and sodium caprate): +
- signal of molecular weight corresponding to N-caprinoyl amino acid ([1]; substrates L-Val and sodium caprate): +
- signal of molecular weight corresponding to N-caprinoyl amino acid ([1]; substrates β-Ala and sodium caprate): +
- signal of molecular weight corresponding to N-caprinoyl compound ([2]; substrates Carnosine and sodium caprate): −
- signal of molecular weight corresponding to N-caprinoyl compound ([2]; substrates D-Ala and sodium caprate): +
- signal of molecular weight corresponding to N-caprinoyl compound ([2]; substrates D-Asp and sodium caprate): +
- signal of molecular weight corresponding to N-caprinoyl compound ([2]; substrates D-Cys and sodium caprate): +
- signal of molecular weight corresponding to N-caprinoyl compound ([2]; substrates D-Glu and sodium caprate): +
- signal of molecular weight corresponding to N-caprinoyl compound ([2]; substrates D-Ile and sodium caprate): −
- signal of molecular weight corresponding to N-caprinoyl compound ([2]; substrates D-Lys and sodium caprate): −
- signal of molecular weight corresponding to N-caprinoyl compound ([2]; substrates L-Asp-L-Phe and sodium caprate): −
- signal of molecular weight corresponding to N-caprinoyl compound ([2]; substrates L-Gly-L-Gly and sodium caprate): +
- signal of molecular weight corresponding to N-caprinoyl compound ([2]; substrates Sarcosine and sodium caprate): −
- signal of molecular weight corresponding to N-caprinoyl compound ([2]; substrates Taurine and sodium caprate): +
- signal of molecular weight corresponding to N-acylamino acid ([3]; substrates L-Ala and Capric acid): +
- signal of molecular weight corresponding to N-acylamino acid ([3]; substrates L-Ala and Caproic acid): +
- signal of molecular weight corresponding to N-acylamino acid ([3]; substrates L-Ala and Caprylic acid): +
- signal of molecular weight corresponding to N-acylamino acid ([3]; substrates L-Ala and Lauric acid): +
- signal of molecular weight corresponding to N-acylamino acid ([3]; substrates L-Ala and Linoleic acid): −
- signal of molecular weight corresponding to N-acylamino acid ([3]; substrates L-Ala and Palmitic acid): −
- signal of molecular weight corresponding to N-acylamino acid ([3]; substrates L-Ala and myristic acid): +
- signal of molecular weight corresponding to N-acylamino acid ([3]; substrates L-Lys and Capric acid): +
- signal of molecular weight corresponding to N-acylamino acid ([3]; substrates L-Lys and Caproic acid): +
- signal of molecular weight corresponding to N-acylamino acid ([3]; substrates L-Lys and Caprylic acid): +
- signal of molecular weight corresponding to N-acylamino acid ([3]; substrates L-Lys and Lauric acid): +
- signal of molecular weight corresponding to N-acylamino acid ([3]; substrates L-Lys and Linoleic acid): −
- signal of molecular weight corresponding to N-acylamino acid ([3]; substrates L-Lys and Palmitic acid): +
- signal of molecular weight corresponding to N-acylamino acid ([3]; substrates L-Lys and myristic acid): +
B1: AtGH3-10: GH3-10 from Arabidopsis thaliana, His-tagged (protein, listed as Arabidopsis thaliana)
chain: METVEAGHDDVIGWFEHVSENACKVQSETLRRILELNSGVEYLRKWLGTVDVEKMDDYTLETLFTSLVPIVSHADLDPYIQRIADGETSPLLTQEPITVLSLSSGTTEGRQKYVPFTRHSAQTTLQIFRLSAAYRSRFYPIREGGRILEFIYAGKEFKTLGGLTVGTATTHYYASEEFKTKQETTKSFTCSPQEVISGGDFGQCTYCHLLLGLHYSSQVEFVASAFSYTIVQAFSFFEEIWREICADIKEGNLSSRITLPKMRKAVLALIRPNPSLASHIEEICLELETNLGWFGLISKLWPNAKFISSIMTGSMLPYLNKLRHYAGGLPLVSADYGSTESWIGVNVDPHLPPEDVSFAVIPTFSYFEFIPLYRRQNQSDICIDGDFVEDKPVPLSQVKLGQEYELVLTTFTGLYRYRLGDVVEVTSFHKGTPKLSFIYRRKLILTINIDKNTEKDLQRVVDKASQLLSRSTRAEVVDFTSHADVIARPGHYVIYWEIRGEADDKALEECCREMDTAFVDYGYVVSRRMNSIGPLELRVVERGTFGKVAERCVGKCGGLNQFKTPRCTTNSVMLDILNDSTIKRFRSSAYD
modifications: His-tag
notes: GH3-10 from Arabidopsis thaliana, His-tagged
